The results in this text go back to patent US20110274702A1 (INSTITUTE FOR RESEARCH IN BIOMEDICINE, published 2011).

Common to all, as to test: cell-based or functional assay
The target of assay [1] is HA A/VN/1194/04 (H5) (influenza A virus H5 A/VN/1194/04).
The target of assay [2] is H7N1 A/ck/FPV/Ro/34 HA on pseudotyped virus (influenza A virus H7N1 …, UniProt P03459 19-563).
For assay [3], the target named is H5N1 A/VN/1203/04 HA on pseudotyped virus (influenza A virus H5N1 A/VN/1203/04).

B1: FI6 variant 2 (antibody, V domains shown)
VH: QVQLVQSGGGVVQPGRSLRLSCVASGFTFSTYAMHWVRQAPGRGLEWVAVISYDGNYKYYADSVKGRFSISRDNSNNTLHLEMNTLRTEDTALYYCAKDSQLRSLLYFEWLSQGYFDPWGQGTLVTVTS
VL: DIQMTQSPDSLAVSLGARATINCKSSQSVTFNYKNYLAWYQQKPGQPPKVLIYWASARESGVPDRFSGSGSGTDFTLTISSLQAEDVAVYYCQQHYRTPPTFGQGTKVEIK
With B1, the “Neutralization H5 A/VN/1194/04 pseudovirus, IC50” value in assay [1] came out at 0.0054 mg/L. The “Neutralization H7 A/ck/FPV Rostock/34 pseudovirus, IC50” value in assay [2] turned out to be 0.02 mg/L.

B2: FI6 variant 3 (antibody, V domains shown)
VH: QVQLVESGGGVVQPGRSLRLSCAASGFTFSTYAMHWVRQAPGKGLEWVAVISYDANYKYYADSVKGRFTISRDNSKNTLYLQMNSLRAEDTAVYYCAKDSQLRSLLYFEWLSQGYFDYWGQGTLVTVSS
VL: not shown
In the case of B2, the “Neutralization H5 A/VN/1194/04 pseudovirus, IC50” value in assay [1] amounted to 0.0035 mg/L. Moreover, the “Neutralization H7 A/ck/FPV Rostock/34 pseudovirus, IC50” value in assay [2] worked out at 0.0274 mg/L.

B3: FI28 variant 1 (antibody, V domains shown)
VH: EVQLVESGGGAVQPGESLKLSCAASGFTFSNYGMHWVRQAPGKGLEWVAVISYDGSNKYYADSVKGRFTISRDNSKDTLYLQMNSLRAEDTALFYCAKERPLRLLRYFDWLSGGANDYWGQGTLVTVSS
VL: DIVMTQSPDSLAVSLGERATINCKSSQSVLYSSNNKNYLAWYQQKPGQPPKLLIDWASTRESGVPDRFSGSGSGTDFTLTISNLQVEDVAVYYCQQYYRSPSFGQGTKLEIK
Turning to B3, the “Neutralization of HA-pseudotypes (IC90, µg/ml)” value in assay [3] stood at 0.02 µg/mL.
